Data from PMC3621905.

How the values were obtained:
[1] = molecular target: Mouse TASK-3 (mKCNK9), untagged (mouse) (UniProt Q3LS21)
[2] = molecular target: HA-mKCNK9 (mouse TASK-3, HA-tagged) (mouse) (UniProt Q3LS21); assay: co-IP; DPP6 and TASK-3 co-expressed with one of them HA-tagged; membrane fraction solubilised in TNE buffer (50 mM TRIS, 150 mM NaCl, 1 mM EDTA, pH 7.4, 1% Triton X-100), precleared with mouse IgG agarose, incubated 16 h at 4°C with anti-HA agarose (clone HA-7); Western blot with anti-DPP6 or anti-KCNK9; Co-IP ratio = fraction precipitated indirectly when untagged divided by fraction precipitated directly when tagged
[3] = molecular target: HA-DPP6K (mouse dipeptidyl peptidase-like protein 6, N-terminal variant K, HA-tagged) (mouse); assay: as above

| resting membrane conductance of CHO-K1 cells co-expressing DPP6 with TASK-3, against TASK-3 alone (voltage clamp) [1] [fold] | Co-IP ratio (percent of the protein that could be directly precipitated) [2] [%] | Co-IP ratio (percent of the protein that could be directly precipitated) [3] [%] | Substance |
| --- | --- | --- | --- |
| 2.3 | 31.4 | – | DPP6K (mouse dipeptidyl peptidase-like protein 6, N-terminal variant K), untagged (natural protein) |
| – | – | 31.4 | Mouse TASK-3 (mKCNK9), untagged (from UniProt Q3LS21 1-402) (natural protein) |
